Assay results published in patent US20180282412A1.

Key:
[1] = biological target: PD-1-Fc fusion protein (extracellular region of human PD-1 fused to human Fc) (human); test: ELISA on coated PD-1-Fc, HRP anti-human kappa
[2] = biological target: PD-1-Fc fusion protein (extracellular region of human PD-1 fused to human Fc) (human); test: SPR (Biacore), PD-1-Fc immobilized, antibody as analyte

PD-1-Fc fusion protein (extracellular region of human PD-1 fused to human Fc) (human), sequence (chain, as listed by the source limits assumed): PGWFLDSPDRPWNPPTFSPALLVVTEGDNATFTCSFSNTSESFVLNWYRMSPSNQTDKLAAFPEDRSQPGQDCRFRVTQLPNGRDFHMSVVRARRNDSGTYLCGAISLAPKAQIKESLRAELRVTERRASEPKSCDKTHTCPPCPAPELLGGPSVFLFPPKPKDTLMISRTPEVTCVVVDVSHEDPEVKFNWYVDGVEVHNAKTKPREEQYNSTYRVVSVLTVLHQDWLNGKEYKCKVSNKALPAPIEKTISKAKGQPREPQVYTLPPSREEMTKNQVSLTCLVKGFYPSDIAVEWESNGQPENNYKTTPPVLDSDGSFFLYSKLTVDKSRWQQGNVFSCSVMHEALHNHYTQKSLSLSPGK

EC50 (read off the curve) [1]: 0.04 µg/mL | Kd [2]: 0.0212 nM
Substance: Nivolumab (antibody)
